Blank lines part the entries; values can stand above or below the compound they belong to.
Columns and labels:
[1] = In vivo metabolite profiling (HPLC-MS with radio flow-through detector) of plasma, urine, feces, liver, tumor; settings: for free Nim or H-Nim in the biological samples evaluated: after [14C]CA102N 200 mg/kg IV
Method: Samples were collected on days 0 through 10. […] The weights of all samples (except blood and plasma) were recorded and then stored at −70°C for later analysis.
Fecal and tissue homogenates were maintained at approximately −70°C for MET-ID analysis. The metabolite profiling in the biological samples from mice dosed with [14C]CA102N was performed by HPLC-tandem mass spectrometry coupled with a radio flow-through detector (RFD). The HPLC-MS/radio flow-through detector (RFD) consisted of a Shimadzu NexeraTM (Shimadzu, disseminated Japan) ultra-high pressure liquid chromatography system with two LC-30AD pumps, a SIL30AC autosampler, and a CTO-30A column oven; A Sciex TripleTOF 6600TM (Sciex, Framingham, MA) mass spectrometer; and a β-RAM Model 3 RFD. The mass spectrometer was controlled by Analyst TF 1.7TM (Sciex, Framingham, MA), and the RFD was controlled by Laura Lite 5TM (LabLogic Systems, Brandon, FL) software. The HPLC eluent was split between the RFD and mass spectrometer with a ratio of 3 to 1.
[14C]CA102N and its metabolites were separated using reverse-phase and hydrophilic interaction chromatography. Two HPLC methods were used to separate the metabolites and the parent molecule CA102N, using RFD and mass spectrometer simultaneously.
Retention times of the metabolites were determined from the radio-chromatograms. Mass spectra (MS and MS/MS) of metabolite standards (H-Nim, H-Nim Saccharide, H-Nim Disaccharide) were acquired and major fragment patterns were proposed. […] For other unknown metabolites, molecular ions were searched on LC-MS chromatograms at the same retention times as those found on an HPLC radio-chromatogram. The product/ion spectra were acquired for the corresponding molecular ions. Putative metabolite structures were proposed based on the analysis of their mass fragment patterns.

[2] = PK of the parent molecule H-Nim in mice (LCMS of serum); type: in vivo, female BALB/c athymic (nu+/nu+) mice; settings: 4.5 mg/kg IV
Method: Female BALB/c athymic (nu+/nu+) mice (n = 5) were used in the study. Mice were treated with a single bolus injection of H-Nim via the tail vein at 4.5 mg/kg. The blood samples were collected at 5, 10, 30, 60, and 120 min after treatment. Mice were anesthetized and decapitated to obtain the blood samples. Serum supernatant was collected and stored at −80 until analysis.
PK samples were analyzed by LCMS analysis. The retention time of H-Nim was approximately 25.4 min on the extracted ion chromatogram (XIC) and the protonated molecule of H-Nim was at m/z 279.

[3] = Quantitative Whole-Body Autoradiography (QWBA) tissue distribution of total radioactivity; type: in vivo, female BALB/c athymic (nu+/nu+) HT-29 xenograft mice
Method: Food and water were provided ad libitum.
Samples were collected on days 0 through 10.
The pinna, limbs, and tail were removed from each frozen carcass (Group 3) and the remaining carcass was embedded in an aqueous suspension of approximately 1% (w/v) carboxymethylcellulose and frozen into a block. The blocks were stored at approximately −20°C before sectioning. Each blocked carcass was mounted on a microtome stage (Leica CM3600 Cryomacrocut and/or a Vibratome 9800, Leica Corp., Nussloch, Germany) and maintained at approximately −20°C. Sections were collected and allowed to dry by sublimation in the cryomicrotome at −20°C for at least 48 h. A set of sections for each mouse was mounted on a cardboard backing, covered with a thin plastic wrap, and exposed along with calibration standards of [14C]-glucose mixed with blood at 10 different concentrations to a [14C]-sensitive phosphor imaging plate (Fuji Biomedical, Stamford, CT). The imaging plates and sections were placed in light-tight exposure cassettes, for a 4-day (96 h) exposure at room temperature. The imaging plates were scanned using the GE Healthcare Typhoon FLA 9500 image acquisition system (GE/Molecular Dynamics, Sunnyvale, CA, United States). Quantification was performed by image dosimetry using MCID image analysis software (Version 7.0, Interfocus Imaging Ltd., Linton, Cambridge, United Kingdom). A standard curve was constructed from the integrated response (MDC/mm2) and the nominal concentrations of the [14C]-calibration standards. The concentrations of radioactivity were expressed as the µg equivalents of CA102N per gram sample (µg equiv/g).
The following calculations were used to determine the µg equivalents/mL, or/g and % percent of dose in the tissue: µg equivalents/mL=µCi/mL/Specific Activity DosedµCi/mL µg equivalents/g=DPM of the sample×1/MassTissueg/Specific Activity of the radiolabeled moleculeDPM/g Percent of dose in tissue=µg eq in tissue×100/Specific Activity DosedμCi/μg
Autoradioluminographic image data were calibrated using response curves that were generated using a weighted, 1st-degree, polynomial, linear equation (1/MDC/mm^2). A numerical estimate of the goodness of fit was given by the relative error, where the absolute value for the relative error of each calibration standard must have been ≤0.250 to be accepted.
The LLOQ and ULOQ were set using calibration standard concentration values of 0.0003 and 20.973 μCi/g, respectively, which were widely proven values ([Kolbe and Dietzel, 2000]) that were verified during the QWBA system validation ([Solon and Lee, 2002]).

[4] = mouse, in vivo
Method: Female BALB/c athymic (nu+/nu+) mice (n = 48) were generated by Taconic (Germantown, NY). Mice (18–22 g) were acclimated for at least 3 days before subcutaneous implantation of 1 × 10^7 HT-29 colorectal carcinoma (ATCC number HTB38) cells in 100 μL 50:50 matrigel: PBS. Tumors were allowed to grow to 200–500 mm^3 sizes before initiating the study. Each animal was assigned a permanent identification number, and identified with a tail mark before being placed on the study. Food and water were provided ad libitum. Animal rooms were controlled to maintain a temperature of 68°F–79°F, and 20%–70% relative humidity, with a 12 h light/12 h dark cycle. Observations were recorded for all animals pre-dose and at least once daily post-dose. Mice were randomized into 3 groups and housed (n = 3 per cage) in metabolism cages (Group 1, n = 9) or shoebox cages (Group 2, n = 29 and Group 3, n = 10). […] Urine, feces, cage residue, blood/plasma, tissue samples, and carcasses were collected from different groups for Mass Balance (MB), Metabolite Identification (MET-ID), Pharmacokinetics (PK), and Quantitative Whole-Body Autoradiography (QWBA) studies.
Samples were collected on days 0 through 10. […] Blood samples were collected via cardiac puncture (Group 2), into EDTA-containing tubes at 0 (pre-dose), 0.5, 2, 8, 24, 48, 72, 120,168, 240, and 336 h after the dose, and plasma samples were harvested on wet ice for PK analysis. […] The weights of all samples (except blood and plasma) were recorded and then stored at −70°C for later analysis.
Radioactivity in diluted formulations, plasma, and urine, was quantitated by mixing with a liquid scintillator, Ultima Gold scintillation cocktail (5 mL, PerkinElmer). Samples were analyzed by LSC for total radioactivity content.
Nominal times were used for pharmacokinetic calculations. Phoenix® WinNonlin®, (version 6.3, Pharsight Corporation, Mountain View, CA, United States) noncompartmental pharmacokinetic analysis was used to determine PK parameters [Maximal concentration (Cmax), Time of maximal concentration (Tmax), Terminal half-life (t1/2), area under the curve to infinity observed (AUCinf obs [µg equiv·h/g]), and area under the curve all observed points (AUCall [µg equiv·h/g])]. The acceptance criteria for the terminal half-life (t1/2) estimation used regression of at least three time points. […] Plasma concentrations are expressed as µg equivalents (equiv)/g (assume 1 mL = 1 g).

[5] = test system: HT-29 xenograft; parameters: method as in Lin et al., 2017; settings: 200 or 400 mg/kg weekly (QW) or three times a week (TIW); ref Lin et al., 2017; cited from earlier work
[6] = mouse, in vivo; remark: listed apart in the source
[7] = in vivo; cited from earlier work

free Nim or H-Nim in the biological samples evaluated [1]: No free Nim or H-Nim are determined
half-life [2]: < 5 min
serum concentration at any time point greater than 5 min ([2]; detection limit 0.1 μg/mL): not detectable
serum concentration ([2]; 5 min): 142 ng/mL
Compound: CS(=O)(=O)Nc1ccc(N)cc1Oc1ccccc1 [H-Nim]

excretion by component, Feces, percent of dose ([1]; Group 1, 200 mg/kg IV): 13.20%
excretion by component, Total, percent of dose ([1]; Group 1, 200 mg/kg IV): 13.2%
metabolite in fecal extracts ([1]; pooled 0 to 120 h): primary metabolite
Compound: CC(=O)NC1C(O)OC(CO)C(O)C1OC1OC(C(=O)Nc2ccc(NS(C)(=O)=O)c(Oc3ccccc3)c2)C(O)C(O)C1O (stereo not drawn) [M1]

metabolite in liver and tumor extracts ([1]; 240 h post-dose): dominant metabolite
excretion by component, Liver + Tumor, percent of dose ([1]; Group 1, 200 mg/kg IV): 4.40%
excretion by component, Total, percent of dose ([1]; Group 1, 200 mg/kg IV): 4.4%
Compound: CC(=O)NC1C(O)OC(CO)C(O)C1OC1OC(C(=O)Nc2ccc(NS(C)(=O)=O)c(Oc3ccccc3)c2)C(OC2OC(CO)C(O)C(OC3OC(C(=O)O)C(O)C(O)C3O)C2NC(C)=O)C(O)C1O (stereo not drawn) [M1037]

free Nim or H-Nim in the biological samples evaluated [1]: No free Nim or H-Nim are determined
Compound: CS(=O)(=O)Nc1ccc([N+](=O)[O-])cc1Oc1ccccc1 [Nimesulide, reference compound]

Compound: N-(4-Amino-2-phenoxyphenyl) methanesulfonamide-graft-poly (β-D-(1, 3) glucuronic acid-β-D-(1, 4)-N-acetylglucosamine) conjugate [CA102N]
lowest relative tissue concentrations: white adipose, brain, spinal cord, bone tissue, eye lens, mammary gland region, skeletal muscle ([3]; 200 mg/kg IV): < 60 μg equiv/g
half-life of release of CA102N and its metabolites from tumor sites ([3]; mouse, in vivo): 74.2 h
tissue-to-blood ratio, Blood (cardiac) ([3]; mouse, in vivo, iv, 200 mg/kg): 1.00
total radioactivity, adrenal Gland ([3]; mouse, in vivo, iv, 200 mg/kg): 429.979 μg equiv/g
total radioactivity, thyroid ([3]; mouse, in vivo, iv, 200 mg/kg): 469.62 μg equiv/g
systemic plasma clearance (CL) [4]: 0.2 mL/min/kg
volume of distribution at steady state (Vss) [4]: 0.1 L/kg
AUC 0-inf_obs ([4]; iv, 200 mg/kg): 18332.4 μg equiv/ml*h
AUC 0-t ([4]; iv, 200 mg/kg): 18329.2 μg equiv/ml*h
AUC 0-t/0-inf_obs ([4]; iv, 200 mg/kg): 0.99
AUClast ([4]; iv, 200 mg/kg): 18,332.4 μg equiv/ml*h
AUMC 0-inf_obs ([4]; iv, 200 mg/kg): 161062.0 μg equiv/ml*h^2
C0 ([4]; iv, 200 mg/kg): 1985.6 μg equiv/ml
Cl_obs ([4]; iv, 200 mg/kg): 0.01 (mg)/(μg equiv/ml)/h
Clast_obs/Cmax ([4]; iv, 200 mg/kg): 5.5E-05
Lambda_z ([4]; iv, 200 mg/kg): 0.03 h⁻¹
MRT 0-inf_obs ([4]; iv, 200 mg/kg): 8.7 h
Vss_obs ([4]; iv, 200 mg/kg): 0.09 (mg)/(μg/mL)
Vz_obs ([4]; iv, 200 mg/kg): 0.3 (mg)/(μg equiv/ml)
mean plasma radioactivity ([4]; iv, 200 mg/kg): 1.073 µg equivalents/mL
tumor burden compared to vehicle-treated controls [5]: significant reduction in tumor burden
cage rinses, wash, and wipe combined, percent of dose [6]: 20%
radioactivity elimination through urine, average percent of dose (abstract) [6]: 77%
total dose eliminated within the first 24 h [6]: Around 60%
hepatotoxicity [7]: absence of hepatotoxicity

From article PMC11655901, “Mass balance, metabolic disposition, and pharmacokinetics of a single IV dose of [14C]CA102N in HT-29 xenograft athymic nude mice” (Frontiers in Pharmacology, 2024)
